Legend:
LS-411N = assay: Drug combination screen (ATPlite, Synergy Score), LS-411N; type: cell-based, human; conditions: compound in combination with IgG1-hDR5-01-G56T-E430G + IgG1-hDR5-05-E430G; LS-411N; 72 hour ATPlite, 6x6 matrix
SW480 = assay: Drug combination screen (ATPlite, Synergy Score), SW480; type: cell-based, human; conditions: compound in combination with IgG1-hDR5-01-G56T-E430G + IgG1-hDR5-05-E430G; SW480; 72 hour ATPlite, 6x6 matrix
DLD-1 = assay: Drug combination screen (ATPlite, Synergy Score), DLD-1; conditions: compound in combination with IgG1-hDR5-01-G56T-E430G + IgG1-hDR5-05-E430G; DLD-1; 120 hour ATPlite, 6x6 matrix
HCT 116 = assay: Drug combination screen (ATPlite, Synergy Score), HCT 116; conditions: compound in combination with IgG1-hDR5-01-G56T-E430G + IgG1-hDR5-05-E430G; HCT 116; 120 hour ATPlite, 6x6 matrix
SNU-C2B = assay: Drug combination screen (ATPlite, Synergy Score), SNU-C2B; conditions: compound in combination with IgG1-hDR5-01-G56T-E430G + IgG1-hDR5-05-E430G; SNU-C2B; 72 hour ATPlite, 6x6 matrix

B1: TNF-related apoptosis-inducing ligand (protein, UniProt P50591 1-281, looked up)
Tumor necrosis factor ligand …: MAMMEVQGGPSLGQTCVLIVIFTVLLQSLCVAVTYVYFTNELKQMQDKYSKSGIACFLKEDDSYWDPNDEESMNSPCWQVKWQLRQLVRKMILRTSEETISTVQEKQQNISPLVRERGPQRVAAHITGTRGRSNTLSSPNSKNEKALGRKINSWESSRSGHSFLSNLHLRNGELVIHEKGFYYIYSQTYFRFQEEIKENTKNDKQMVQYIYKYTSYPDPILLMKSARNSCWSKDAEYGLYSIYQGGIFELKENDRIFVSVTNEHLIDMDHEASFFGAFLVG
Synergy Score LS-411N (LS-411N): 0.1 | Synergy Score SW480 (SW480): 0.9 | Synergy Score DLD-1 (DLD-1): 0 | Synergy Score HCT-116 (HCT 116): 0 | Synergy Score SNU-C2B (SNU-C2B): 0.2
